{
  "source": "the nanobody polyreactivity screen of Harvey et al. (2022)",
  "data": [
    {"test": "yeast display, Sf9 membrane polyspecificity reagent, FACS + sequencing; frameworks hold sequencing errors", "in_short": "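Sorting gates, low and high (top ~1%), were placed on anti-HA fluorescence to track expression and on streptavidin fluorescence to track reagent binding. A clone's polyreactivity label is taken from the gate it came out of. The reagent was 10% biotinylated, detergent-solubilized Sf9 membrane, applied for 1 hour at 4 °C to galactose-induced yeast display cells.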", "values": [
      {"sequence": "QVQLVESGGGLVQAGGSLRLSCAASGSTFSDNAMGWYRQAPGKERELVAGITGGGGTYYADSVKGRFTISRDNAKNTVYLQMNSLKPEDTAVYYCAADTWGTPTPFVHYPEFEHWGQGTQVTVSS", "polyreactivity (PSR sort gate)": "low polyreactivity"},
      {"sequence": "QVQLVESGGGLVQAGGSLRLSCAASGSTFSDYAMGWYRQAPGKERELVAAISDSGSGTYYADSVKGRFTISRDNAKNTVYLQMNSLKPEDTAVYYCNTDPRFAMDWGQGTQVTVSS", "polyreactivity (PSR sort gate)": "low polyreactivity"},
      {"sequence": "QVQLVESGGGLVQAGGSLRLSCAASGSTFSDYAMGWYRQAPGKERELVAAISGGGTTDYADSVKGRFTISRDNAKNTVYLQMNSLKPEDTAVYYCNKPVEGSFLPYSYLRFDYWGQGTQVTVSS", "polyreactivity (PSR sort gate)": "low polyreactivity"},
      {"sequence": "QVQLVESGGGLVQAGGSLRLSCAASGSTFSDYAMGWYRQAPGKERELVAAISYSGGSTYYADSVKGRFTISRDNAKNTVYLQMNSLKPEDTAVYYCAAEYERYFGYDYWGQGTQVTVSS", "polyreactivity (PSR sort gate)": "low polyreactivity"},
      {"sequence": "QVQLVESGGGLVQAGGSLRLSCAASGSTFSDYVMGWYRQAPGKERELVAAISWSGDRTYYADSVKGRFTISRDNAKNTVYLQMNSLKPEETAVYYCAAEYAPSEPSYYYGYDYWGQGTQVTVSS", "polyreactivity (PSR sort gate)": "high polyreactivity"},
      {"sequence": "QVQLVESGGGLVQAGGSLRLSCAASGSTFSFYTMGWYRQAPGKERELVAAISQSGTSTYYADSVKGRFTISRDNAKNTVFLQMNSLKPEDTAVYYCATVRKFYFHTRWYYYEGGYWGQGTQVTVSS", "polyreactivity (PSR sort gate)": "high polyreactivity"},
      {"sequence": "QVQLVESGGGLVQAGGSLRLSCAASGSTFSGNAMGWYRQAPGKERELVAAISSGGDTYYADSVKGRFTNSRDNAKNTVYLQMNSLKPEDTAVYYCNARSTWRHRRDQVDFDYWGQGTQVTVSS", "polyreactivity (PSR sort gate)": "low polyreactivity"},
      {"sequence": "QVQLVESGGGLVQAGGSLRLSCAASGSTFSGNAMGWYRQAPGKERELVAAITSGGSTNYADSVKGRFTISRDNAKNTVYLDMNSLKPEDTAVYYCAKRYGYRRYYTASDYWGQGTQVTVSS", "polyreactivity (PSR sort gate)": "low polyreactivity"},
      {"sequence": "QVQLVESGGGLVQAGGSLRLSCAASGSTFSGNAMGWYRQAPGKERELVAGIRQSGDSTYYADSVKGRFTISRDNAKNTVYLQMNSLKPEDTAVYDCNARAFPFGTGVQGFGFGYWGQGTQVTVSS", "polyreactivity (PSR sort gate)": "low polyreactivity"},
      {"sequence": "QVQLVESGGGLVQAGGSLRLSCAASGSTFSGYTMGWYRQAPGKERELVASISSGVSTYYADSVKGRFTISRDNAKNTVYLQMNSLKPEDTAVYYCAADSVGDYGYQVYASWGYEDEYWGQGTQVTVSS", "polyreactivity (PSR sort gate)": "low polyreactivity"},
      {"sequence": "QVQLVESGGGLVQAGGSLRLSCAASGSTFSHYAMGWYRQAPGKERELVAAISTSGGSTYYADSVKGRFTISRDNAKNTVYLQMNSLKPEDTAVYYCAAAVPRQGNYGGYEYWGQGSQVTVSS", "polyreactivity (PSR sort gate)": "high polyreactivity"},
      {"sequence": "QVQLVESGGGLVQAGGSLRLSCAASGSTFSHYAMVWYRQAPGKERELVATITGTGVRTYYADSVKGRFTISRDNAKNTVYLQMNSLKPEDTAVSYCAVPPSKRGAQAQPWMDYWGQGTQVTVSS", "polyreactivity (PSR sort gate)": "low polyreactivity"},
      {"sequence": "QVQLVESGGGLVQAGGSLRLSCAASGSTFSINAMGWYRQAPGKERELVAAISWRGSGTYYADSVKGRFTISRDNAKNTVYLQMNSLKPEDTAVYYCAAEWDRPLYYPWYVEYDYWGQGTQVTVSS", "polyreactivity (PSR sort gate)": "high polyreactivity"},
      {"sequence": "QVQLVESGGGLVQAGGSLRLSCAASGSTFSIYAMGWYRQAPGKERELVAAISSSGGSTYYADSVKGRFTISRDNAKNTFYLQMNSLKPEDTAVYYCNKRKYHVRYDYWGQGTQVTVSS", "polyreactivity (PSR sort gate)": "low polyreactivity"},
      {"sequence": "QVQLVESGGGLVQAGGSLRLSCAASGSTFSKKAMGWYRQAPGKERELVAAITGRGGNTYYADSVKGRFTLSRDNAKNTVYLQMNSLKPEDTAVYYCAASWATYWFYRKAYNYWGQGTQVTVSS", "polyreactivity (PSR sort gate)": "high polyreactivity"},
      {"sequence": "QVQLVESGGGLVQAGGSLRLSCAASGSTFSKNAMGWYRQAPGKERELVASISSSGGSTYYADSVKGRFTISRDNAKNTVYLQMNSLKPEDTAVYYCNRRWYARGEYWGQGTQVTVSS", "polyreactivity (PSR sort gate)": "high polyreactivity"},
      {"sequence": "QVQLVESGGGLVQAGGSLRLSCAASGSTFSKNTMGWYRQAPGKERELVAAITGTGDSTYYADSVKGRFTISRDNAKYPVYLQMNSLKPEDTAVYYCAADAYSLCYESWGQGTKVTVSS", "polyreactivity (PSR sort gate)": "low polyreactivity"},
      {"sequence": "QVQLVESGGGLVQAGGSLRLSCAASGSTFSKYAMGWYRQAPGKERELVAAITWRASTYYADSVKGRFTISRDNAKNTVYLQMNSLKPEDTAVYYCAVRQSQRGGTSSNTSNDYWGQGTQVTVSS", "polyreactivity (PSR sort gate)": "high polyreactivity"},
      {"sequence": "QVQLVESGGGLVQAGGSLRLSCAASGSTFSKYAMGWYRQAPGKERELVATISSTGSTNYADSVKGRFTISRDNAKNTVYLQMNSLKPEDTAVSYCNAGRRGRPYYKYYYWGQGTQVTVSS", "polyreactivity (PSR sort gate)": "high polyreactivity"},
      {"sequence": "QVQLVESGGGLVQAGGSLRLSCAASGSTFSLYAMGWSRQAPGKERELVAAISRSGGRTYYADSVKGRFTISRDNAKNTVYLQMNSLKPEDTAVYYCAADSTSGYYWGQGTQVTVSS", "polyreactivity (PSR sort gate)": "high polyreactivity"},
      {"sequence": "QVQLVESGGGLVQAGGSLRLSCAASGSTFSLYAMGWYRQAPGKERELVAAISQSGSRTYYADSVKGRFTISRDNAKNTVYLQMNSLKPEDTAVYYCAAYSPQTYLRWTYGYWGQGTQVTVSS", "polyreactivity (PSR sort gate)": "high polyreactivity"},
      {"sequence": "QVQLVESGGGLVQAGGSLRLSCAASGSTFSLYAMGWYRQATGKERELVASIRGRGGSTNYADSVKGRFTISRDNAKNTVYLQMNSLKPEDTAVYYCAAAVGSVRYDYWGQGTQVTVSS", "polyreactivity (PSR sort gate)": "high polyreactivity"},
      {"sequence": "QVQLVESGGGLVQAGGSLRLSCAASGSTFSLYDMGWYRQAPGKERELVAAISSSGGGTYYADSVKGRFTISRDNAKKTVYLQMNSLKPEDTAVYYCAARFYYYPTKYDSWGQGTQVTVSS", "polyreactivity (PSR sort gate)": "high polyreactivity"},
      {"sequence": "QVQLVESGGGLVQAGGSLRLSCAASGSTFSLYTMGWYRQAPGKERELVAAITNGGSTKYADSVKGRFTISRDNAKNTVYLQMNSLKPEDTAVYYCAALYTHYYWIEYDYWGQGTQVTVSS", "polyreactivity (PSR sort gate)": "low polyreactivity"},
      {"sequence": "QVQLVESGGGLVQAGGSLRLSCAASGSTFSNAMGWYREAPGKERELVAAITNRGGSTYYADSVKGRFTISRDNAKNTVYLQMNSLKPEDTAVYYCAAAGIPESWYQERDYWGQGTQVTVSS", "polyreactivity (PSR sort gate)": "low polyreactivity"},
      {"sequence": "QVQLVESGGGLVQAGGSLRLSCAASGSTFSPYALGWYRQAPGKERELVAGITSSGGDTYYADSVKGRFTISRDNAKNTVYLQMNSLKPEDTAVYYCAADWWVLGQLWFDYWGQGTQVTVSS", "polyreactivity (PSR sort gate)": "low polyreactivity"},
      {"sequence": "QVQLVESGGGLVQAGGSLRLSCAASGSTFSPYAMGWYIQAPGKERELVAAIRVRVGGNTYYADSVKGRFTISRDNAKNTVYLQMNSLKPEDTAVYYCAAYSRTLYPDRYYWGQGTQVTVSS", "polyreactivity (PSR sort gate)": "high polyreactivity"},
      {"sequence": "QVQLVESGGGLVQAGGSLRLSCAASGSTFSPYAMGWYRQAPGKDRELVAAISYDGASTYYADSVKGRFTISRDNAKNTVYLQMISLKPEDTAVYYCAADYFRSYEGTYWVVASYYYWGQGTQVTVSS", "polyreactivity (PSR sort gate)": "low polyreactivity"},
      {"sequence": "QVQLVESGGGLVQAGGSLRLSCAASGSTFSQYAMGWYRPAPGKERELVAAINYIGGSTYYADSVKGRFTISRDNAKNTVYLQMNSLKPEDTAVYYCAVQRWKSSVSFGYWGQGTQVTVSS", "polyreactivity (PSR sort gate)": "low polyreactivity"},
      {"sequence": "QVQLVESGGGLVQAGGSLRLSCAASGSTFSQYAMGWYRQAPGKERELVAAITTSDGSTNYADSVKGRFTISRDNAKNTVYLQMNSLKPEDTAVYYCNTEYFYYSFGYWGQGTQVTVSS", "polyreactivity (PSR sort gate)": "low polyreactivity"},
      {"sequence": "QVQLVESGGGLVQAGGSLRLSCAASGSTFSRNAMGWSRQAPGKERELVAAISYRGGSTYYADSVKGRFTISRDNAKNTVYLQMNSLKPEDTAVYYCNADVGWRAPDYGGYDYWGQGTQVTVSS", "polyreactivity (PSR sort gate)": "high polyreactivity"},
      {"sequence": "QVQLVESGGGLVQAGGSLRLSCAASGSTFSRNAMGWYRQAPGKERELVAAISWRGGRTYYADSVKGRFTISRDNAKNTVYLQMNRLKPEDTAVYYCAAEHKYRYDYWGQGTQVTVSS", "polyreactivity (PSR sort gate)": "low polyreactivity"},
      {"sequence": "QVQLVESGGGLVQAGGSLRLSCAASGSTFSRNTMGWYRQAPGKERELVAAITRSGDSTYYADSVKGRFTISRDNAKKTVYLQMNSLKPEDTAVYYCAARRAYLNYYYWGQGTQVTVSS", "polyreactivity (PSR sort gate)": "high polyreactivity"},
      {"sequence": "QVQLVESGGGLVQAGGSLRLSCAASGSTFSRYAMGWYRPAPGKERELVAAITRSGGGTHYADSVKGRFTISRDNAKNTVYLQMNSLKPEETAVYYCAKRQSGYRYDYWGQGTEVTVSS", "polyreactivity (PSR sort gate)": "low polyreactivity"},
      {"sequence": "QVQLVESGGGLVQAGGSLRLSCAASGSTFSRYAMGWYRQAPGKERELVAAISRRAGSTYYADSVKGRFTISRDNAKNTVYLQMNSLKPEDTAVYYCAARTWTENRDGDYWGQGTQVTVSS", "polyreactivity (PSR sort gate)": "high polyreactivity"},
      {"sequence": "QVQLVESGGGLVQAGGSLRLSCAASGSTFSRYAMGWYRQAPGKERELVAAISSRGGSTYYADSVKGRFTISRDNAKNTVYLQMNSLKPEDTAVYYCAARPYYYIVRGTEYDYWGQGTQVTVSS", "polyreactivity (PSR sort gate)": "high polyreactivity"},
      {"sequence": "QVQLVESGGGLVQAGGSLRLSCAASGSTFSRYAMGWYRQAPGKERELVAAISWSGGRTNYADSVKGRFTISRDNAKNTVYLQMNSLKPEDTAVYYCNAPFRHRYRVDYWGQGTQVTVSS", "polyreactivity (PSR sort gate)": "high polyreactivity"},
      {"sequence": "QVQLVESGGGLVQAGGSLRLSCAASGSTFSRYAMGWYRQAPGKERELVAAISYSGDSTYYADSVKGRFTISRDNAKNTVYLQMNSLKPEDTAVYYCNVYSHYRGYYWGQGTQVTVSS", "polyreactivity (PSR sort gate)": "high polyreactivity"},
      {"sequence": "QVQLVESGGGLVQAGGSLRLSCAASGSTFSRYTMGRYRQAPGKERELVAAIRRSGASTYYADSVKGRFTISRDNAKNTVYLQMNSLKPEDTAVYYFAVGRYRYGYWGQGTQVTVSS", "polyreactivity (PSR sort gate)": "high polyreactivity"},
      {"sequence": "QVQLVESGGGLVQAGGSLRLSCAASGSTFSRYTMGWYRQAPGKERELVAAISKSGGSTYYADSVKGRFTISRDNAKNTVYLQMNSLKPEDTAVYYCAALVRAGTSLDYDYWGQGTQVTVSS", "polyreactivity (PSR sort gate)": "high polyreactivity"},
      {"sequence": "QVQLVESGGGLVQAGGSLRLSCAASGSTFSSNAMGWYRQAPGKERELVAAINRTGNTYYADSVKGRFTISRDNAKNTVYLQMNSLKPEDTAVYYRNTVLNLYRGGGYWGQGTQVTVSS", "polyreactivity (PSR sort gate)": "low polyreactivity"},
      {"sequence": "QVQLVESGGGLVQAGGSLRLSCAASGSTFSSNAMGWYRQAPGNERELVAAISKRGGRTYYADSVKGRFTISRDNAKNTVYLQMNSLKPEDTAVYYCAKDYSSAVDYWGQGTQVTVSS", "polyreactivity (PSR sort gate)": "high polyreactivity"},
      {"sequence": "QVQLVESGGGLVQAGGSLRLSCAASGSTFSSYAMGWYRQAPGKERELVAAITYSGGSTYYADSVKGRFTISRDNAKNTVYLQMNSLKPEDTAVYYCATRSLFWSFTYYYWGQGTQVTVSS", "polyreactivity (PSR sort gate)": "low polyreactivity"}
    ]}
  ]
}
